For data set [1] the following is noted: cited from earlier work.
The target of the next data set is T1, HIF-1α PAS-B (238-349) (Homo sapiens, UniProt Q16665).
T1 construct: human HIF-1α PAS-B (238-349); His tag; made in house; host or cells: E. coli BL21(DE3)-Rosetta, pET28a
Description: MST binding to recombinantly expressed HIF-1α PAS-B domain. The method, then:
Genes encoding for human HIF-1α PAS-B (238-349) and HIF-2α PAS-B (240-350) were each cloned into pET28a vectors at the BamHI and SacI restriction sites. The recombinant plasmids were next transformed into BL21(DE3)-Rosetta chemically competent cells. Cells were grown in LB media at 37° C. to an OD600 of 0.7, after which expression was induced by addition of 0.5 mM IPTG. Following overnight expression at 16° C., cells were pelleted and resuspended in buffer containing 50 mM Tris, 150 mM NaCl, 5% glycerol, 1 mM TCEP, protease inhibitors (Roche) and 20 mM imidazole, pH 8.0. Cells were lysed by sonication, and the supernatant applied to a 1 mL Histrap FF affinity column. The His-tagged protein of interest was eluted with buffer containing 50 mM Tris, 150 mM NaCl, 5% glycerol, 1 mM TCEP and 250 mM imidazole. The protein was then loaded onto a HiLoad 16/600 superdex 75 pg size exclusion column (GE healthcare) equilibrated with assay buffer containing 50 mM Tris, 150 mM NaCl, 5% glycerol and 1 mM TCEP, pH 8.0. Fractions containing the desired protein were flash-frozen and stored at −80° C. prior to use.
(§1) HIF-α proteins were labelled with Monolith NT-647 labelling dye (Nanotemper Technologies GmbH) according to the manufacturer's instructions. MST experiments were performed on a Monolith NT.115 system (Nanotemper Technologies GmbH), in assay buffer containing 50 nM labelled protein, 10% DMSO and 0.05% TWEEN-20. MST measurements were performed using 50% LED and 50% MST power.

The subject of data set [2] is 1α PAS-B mutants C255A, C334A or C337A. Description: MST binding to 1α PAS-B cysteine mutants. Also noted: species or system human. The conditions noted are these: mutations C255A.
Text: The potency imparted by the thiol motif raised the possibility of the interaction being disulfide-mediated. To counter this, all assays thus far had been performed with excess reducing agent tris(2-carboxyethyl)phosphine (TCEP) present in the buffers. Nonetheless the possibility was still considered due to the importance of the thiol moiety. As the HIF-α PAS-B domain contains multiple cysteines in internal cavities there remained the potential for disulfide bond formation within a solvent and TCEP-inaccessible region of the protein-peptide complex. Three 1α PAS-B mutants were therefore prepared with mutations C255A, C334A or C337A and the activity of the peptide CRLIIF [SEQ ID NO: 6, cyclic peptide #4] again tested by MST. It was anticipated that if a disulfide bond were to form with any of these then there would be a significant loss of binding for the peptide with the corresponding mutant.
as §1

The next data set relates to HIF-2α/1α:HIF-1β RTHS. Description: RTHS secondary screening, drop-spotting regrowth assay. Format: cell-based. The conditions noted are these: SICLOPPS-expressed peptide, control CAAAAA. The method, then:
A screen for cyclic peptide inhibitors of HIF-2 dimerization was performed using SICLOPPS with a HIF-2 RTHS, using a method described previously.^8,9 (FIG. 1a). A secondary screen was then also conducted on the HIF-1 RTHS to compare selectivity, after which the hits found to inhibit both HIF-2 and HIF-1 were chosen for further review (FIG. 1b). SICLOPPS plasmids that produced a growth advantage in both systems were further screened in an unrelated p6/UEV RTHS to eliminate false positives (FIG. 1b).
It was expected that the similarity between these peptides would translate to a common structure-affinity relationship trend between the three, and that any differences in affinity could be used to inform optimisation efforts. In addition, all three peptides contained a basic side chain (arginine or lysine), which are protonated under physiological conditions, and would therefore aid solubility and potentially provide a useful polar interaction with the proteins themselves. […] The splicing efficiency of peptides from the Ssp intein may vary slightly depending on their sequence, thus resulting in different concentrations of peptide in the cell, which may therefore bias the extent of regrowth response.^10 It was therefore decided that to fully validate these hits, that the binding activity was to be assessed under in vitro assay conditions. […]

Data set [3] has as its target HIF (hypoxia inducible factor) in the YFP-reporter T-REx-293 (HEK) cell line. Description: cell-based or functional assay.
Data set [4] deals with T2, human HIF-2α PAS-B (240-350), recombinant, His-tagged (human, UniProt Q99814 240-350, labelled with Monolith NT-647 dye for MST).
T2 construct: range 240-350; Expressed in E. coli BL21(DE3)-Rosetta from pET28a; also called PAS-B domain of HIF-2α; not shown: His tag from pET28a vector (BamHI/SacI cloning)
T2 sequence (Q99814 240-350): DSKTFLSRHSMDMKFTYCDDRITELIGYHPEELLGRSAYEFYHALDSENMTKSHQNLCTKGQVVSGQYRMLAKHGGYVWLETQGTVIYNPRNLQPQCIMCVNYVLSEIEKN
Description: MST, HIF-2α PAS-B against HIF-1α PAS-B. On the procedure:
as §1

Data set [5] concerns the target T3, human HIF-1α PAS-B (238-349), recombinant, His-tagged (human, UniProt Q16665 238-349, labelled with Monolith NT-647 dye for MST).
T3 construct: range 238-349; Expressed in E. coli BL21(DE3)-Rosetta from pET28a; also called HIF-1α PAS-B domain; PAS-B domain of HIF-1α; not shown: His tag from pET28a vector (BamHI/SacI cloning)
Description: MST, NT-647-labelled recombinant HIF-1α PAS-B. On the procedure:
as §1

The target in data set [6] is T2, human HIF-2α PAS-B (240-350), …. Description: MST, NT-647-labelled recombinant HIF-2α PAS-B. The method, then:
as §1

Data set [7] concerns the target T3, human HIF-1α PAS-B (238-349), …. Description: MST, HIF-1α PAS-B; bar chart of Kd (µM) for residues at position 6 of CRLIIF.
The target is the same in data set [8]. Description: MST, NT-647-labelled recombinant PAS-B domain. The method, then: as §1
Data set [9] deals with T2, human HIF-2α PAS-B (240-350), …. Description: MST, NT-647-labelled recombinant PAS-B domain. On the procedure: as §1
Data set [10] addresses T3, human HIF-1α PAS-B (238-349), …. Description: MST, ratio of Kd on HIF-2α PAS-B to Kd on HIF-1α PAS-B.
For data set [11] the target is unchanged. Description: MST, peptide titrated against labelled HIF-1α PAS-B [bottom panel].
For data set [12], the target named is T2, human HIF-2α PAS-B (240-350), …. Description: MST, peptide titrated against labelled HIF-2α PAS-B [bottom panel].
Data set [13] addresses T3, human HIF-1α PAS-B (238-349), …. Description: MST, NT-647-labelled recombinant 1α PAS-B. The method, then: as §1
Data set [14] shares this target. Description: MST, peptide titrated against labelled HIF-1α PAS-B [top panel].
Data set [15] deals with T2, human HIF-2α PAS-B (240-350), …. Description: MST, peptide titrated against labelled HIF-2α PAS-B [top panel].
Data set [16] concerns the target T3, human HIF-1α PAS-B (238-349), …. Description: MST, peptide titrated against labelled HIF-1α PAS-B [middle panel].
Data set [17] concerns the target T2, human HIF-2α PAS-B (240-350), …. Description: MST, peptide titrated against labelled HIF-2α PAS-B [middle panel].

Square brackets hold non-standard residues; d marks the D form. Peptide text beside a SMILES is read from it. Phe(4-I) = N[C@@H](Cc1ccc(I)cc1)C(=O)O

These results are taken from US20240270793A1, “COMPOSITIONS” (UNIVERSITY OF SOUTHAMPTON, priority 2020, published 2024).

Usually Kd stands for the constant that tells how readily two partners part at equilibrium.

T3 sequence (Q16665 238-349): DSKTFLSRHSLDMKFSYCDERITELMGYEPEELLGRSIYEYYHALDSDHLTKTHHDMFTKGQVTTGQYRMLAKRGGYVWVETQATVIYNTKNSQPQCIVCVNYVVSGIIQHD
T1 sequence (Q16665 238-349): as above

In the case of “CLLFVY: previously reported selective inhibitor of HIF-1 dimerization, cyclic peptide Cys leu leu phe val tyr”, the “solubility of previously reported HIF-1 inhibitor” value in [1] is “comparatively insoluble”.

Consider `CC[C@H](C)[C@@H]1NC(=O)[C@H](CC(C)C)NC(=O)[C@H](CCCNC(=N)N)NC(=O)[C@H](CS)NC(=O)[C@H](Cc2ccccc2)NC(=O)[C@H]([C@@H](C)CC)NC1=O` [Cyclic peptide #4, cyclo-cys agr leu ile ile phe] (cyclo(CRLIIF)), for which the “greater affinity than CKLLIF” value at HIF-1α PAS-B (238-349) (MST against 1α PAS-B) is on record as “about 3 fold”. In addition, the “affinity for 1α PAS-B mutants compared to wild-type protein” value in data set [2] is “identical to that of the wild-type protein”.

Regarding `CC[C@H](C)[C@@H]1NC(=O)[C@H](C(C)C)NC(=O)[C@H](CCCNC(=N)N)NC(=O)[C@H](CS)NC(=O)[C@H](Cc2ccccc2)NC(=O)[C@H]([C@@H](C)CC)NC1=O` [Cyclic peptide #3, cyclo-cys arg val ile ile phe] (cyclo(CRVIIF)), the “selectivity for 1α over 2α” value at HIF-1α PAS-B (238-349) (MST affinities, 1α vs 2α PAS-B) is listed as 2 fold. For the same molecule, the “regrowth response in drop-spotting assay” value with HIF-2α/1α:HIF-1β RTHS was “greatest regrowth response”.

B1: cyclo-cys arg leu ile ile (4-I)phe (peptide)
peptide: cyclo(CRLII[Phe(4-I)])
SMILES: CC[C@H](C)[C@@H]1NC(=O)[C@H](CC(C)C)NC(=O)[C@H](CCCNC(=N)N)NC(=O)[C@H](CS)NC(=O)[C@H](Cc2ccc(I)cc2)NC(=O)[C@H]([C@@H](C)CC)NC1=O
notes: also called CRLIIF(4I); Cyclo-CRLIIF(4-I)
Consider B1, for which the IC50 in the YFP reporter assay (HRE-driven YFP in T-REx-293 cells, hypoxia) in data set [3] stood at 35 µM. For the same molecule, the “fold loss in Kd compared to the 1α isoform” value in [4] came out at 2.2 fold. Also, in [5], the equilibrium dissociation constant (Kd) amounted to 0.85 µM and the “fold improvement in affinity relative to the parent compound CRLIIF” value is 4.5 fold. Also, the Kd in data set [6] was found to be 1.9 µM.

B2: cyclo-cys arg leu ile ile tyr (peptide)
peptide: CRLIIY
modifications: head-to-tail cyclic (cyclo-)
notes: also called Cyclo-CRLIIY; cyclic peptide #29
Consider B2, for which the binding result in data set [7] is given as “binds”.

Regarding CRVIIF (head-to-tail cyclic (cyclo-), also called CRVIIF; cyclic peptide #3) [cyclo-cys arg val ile ile phe], the Kd in data set [8] stood at 61 µM; in [9], 118 µM; in data set [11], 65.5 µM; in [12], 123 µM. Further, in data set [10], the “fold selectivity for 1α over 2α” value was around 2 fold.

Take CKLIIF (head-to-tail cyclic (cyclo-), also called CKLIIF; cyclic peptide #1) [cyclo-cys lys leu ile ile phe]: the Kd in data set [13] was 2.5 µM; in data set [8], around 2 µM; in [9], around 2 µM; in data set [14], 2.6 µM; in data set [15], 2.2 µM.

For the molecule CRLLIF (head-to-tail cyclic (cyclo-), also called CRLLIF; cyclic peptide #2) [cyclo-cys arg leu leu ile phe], the dissociation constant Kd in data set [13] amounted to 14 µM; in [16] it was 14.5 µM; in data set [17], 10.2 µM.
